From US11939397B2, “ENTPD2 antibodies, combination therapies, and methods of using the antibodies and combination therapies” (Novartis AG, priority 2018, dated 2024)

Assays:
mouse ENTPD2 = biological target: T1, mouse ENTPD2 (Mus musculus, UniProt O55026); experiment: Mouse ENTPD2 NIH/3T3 cell-based functional assay
T1 construct: expressed in transfected cells
T1 sequence (O55026 1-495): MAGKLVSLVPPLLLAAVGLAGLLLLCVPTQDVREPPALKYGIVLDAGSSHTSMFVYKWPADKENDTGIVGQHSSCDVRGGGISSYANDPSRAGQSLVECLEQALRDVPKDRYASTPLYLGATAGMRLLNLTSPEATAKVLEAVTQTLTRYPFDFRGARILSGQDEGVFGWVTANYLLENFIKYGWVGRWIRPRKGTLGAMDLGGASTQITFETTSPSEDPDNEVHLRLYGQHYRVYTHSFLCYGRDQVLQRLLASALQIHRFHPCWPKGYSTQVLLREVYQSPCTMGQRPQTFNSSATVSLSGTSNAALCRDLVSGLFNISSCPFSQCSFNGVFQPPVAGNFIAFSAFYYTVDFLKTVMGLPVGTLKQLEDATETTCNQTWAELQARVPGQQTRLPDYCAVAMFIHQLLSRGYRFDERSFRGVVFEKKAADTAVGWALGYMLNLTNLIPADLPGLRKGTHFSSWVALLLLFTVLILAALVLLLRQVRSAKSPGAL
From the text: Biochemical and cell-based functional assays were developed in-house to understand functional impact of anti-ENTPD2 Abs against purified extracellular domain of ENTPD2 (residues 29-462), as well as against the fully intact protein in the context of the native cell-based conformation. ENTPD2 hydrolyzes ATP to ADP, which can subsequently be detected using the HTRF Transcreener ADP2 TR-FRET Red Assay (BellBrook Labs, Madison, WI) where ENTPD2-produced ADP would compete with the ADP Tracer for binding to the anti-ADP-Tb antibody. The resulting signal is inversely proportional to the concentration of ADP in the sample.
To establish cell-based functional assays, human/cyno/mouse ENTPD2-engineered NIH/3T3 cells or RKO (ATCC, Manassa VA) colorectal cancer cells with endogenous ENTPD2 expression were plated overnight at 150, 200 and 250 cells per well for NIH/3T3 mouse, cyno and human ENTPD2 lines, respectively, or 1000 cells per well for RKO in 384-well tissue culture plate, in 30 μl per well (Perkin Elmer, Waltham, MA). […] ADP production was detected with the Transcreener ADP2 TR-FRET Red Assay (BellBrook Labs, Madison, WI) with a final concentration of 4 nM ADP2 antibody and 13.4 nM of ADP Tracer in wells (4× solution was prepared and 5 μL of “Detection Reagent Mix” was added to the quenched conditioned media). […]

B16F10 tumor = experiment: Syngeneic B16F10 tumor model, tumor growth and tumor T cell influx; assay type: in vivo, C57BL/6 mice
Protocol: B16F10 model was established in female C57BL/6 mice by subcutaneous injection of 0.5×10^6 cells into the right flank of each mouse. On day 7 once tumors reached approximately 30 mm^3, mice were randomized according to tumor volume into treatment groups (n=10 per group). Mice received treatment of either anti-mouse ENTPD2 mAb13 at a final dose 15 mg/kg, anti-PD-1 Ab (clone RMP1-14 Bio X Cell, West Lebanon, NH) i.p. at a final dose of 10 mg/kg or the combination of both treatments on days 1, 5, and 8. All doses were adjusted to individual mouse body weights.
In order to understand the impact of treatments on the tumor microenvironment, mice were euthanized on day 8 and tumors were dissociated in HyClone RPMI1640 media (GE Healthcare, Pittsburgh, PA) using gentleMacs C-tubes (Miltenyi Biotec, Auburn, CA) on the gentleMacs Octo Dissociator (Miltenyi Biotec, Auburn, CA). Approximately 2×10^6 dissociated tumor cells were blocked with rat anti-mouse CD16/CD32 Ab (Biolegend, San Diego, CA) to reduce non-specific FcyRIII/II binding and subsequently stained with the following cocktail of Abs: rat anti-mouse CD45-BUV395 (clone 30-F11) (BD Biosciences, San Jose, CA), rat anti-mouse CD8a-BUV737 (clone 53-6.7) (BD Biosciences, San Jose, CA), rat anti-mouse CD4-BV510 (clone RM4-5) (BD Bioscience, San Jose CA), anti-mouse CD69-PercPCy5.5 (clone H1-2F3) (Biolegend, San Diego, CA) and rat anti-mouse CD25-eFluor450 (clone eBio3C7) (eBioscience, San Diego, CA) at the manufacturers' recommended dilutions. All incubations and washes were performed in FACS Buffer composed of 1× HyClone Phosphate Buffered Saline (GE Healthcare, Pittsburgh, PA), 1% HyClone Fetal Bovine Serum (GE Healthcare, Pittsburgh, PA), 2 mM EDTA (ThermoFisher, Waltham MA). After staining with the cell surface antigen antibody cocktail, dissociated tumor cells were washed in FACS buffer, fixed and permeabilized using the eBioscience Foxp3/Transcription Factor Staining Buffer Kit (ThermoFisher, Waltham MA) to allow for intracellular staining with the mouse anti-mouse FOXP3-eFluor660 (clone 150D/E4) (eBioscience, San Diego, CA).

[1] = mAb13 and anti-PD-1 Ab combination, day 8

B1: mAb13: anti-mouse ENTPD2 monoclonal antibody, VH SEQ ID NO: 191, VL SEQ ID NO: 202 (antibody, V domains shown)
VH: QVQLVQSGAELKQPGQSVKISCKASGYTFTHYGMNWVKQAPGQGLKWMGWINTDTGNPTYADDFKGRFVFSLDTSVSTAYLQISNLKNEDTATYYCVRYGTLYSGYGFFFDSWGQGTLVTVSS
VL: DIMMTQSPSSLSVSAGEKATITCKSSQSLFNSNTNKNYLNWYLQKPGQSPKLLFYYASTRHTGVPDRFIGSGSGTDFTLTITSVQDEDLADYYCQQWYSYPWTFGPGTKLEIK
Question: Which results are given for B1?
Answer: % Inhibition at 100 nM (±Std Err) (mouse ENTPD2; 100 nM antibody, mouse ENTPD2 NIH/3T3 cells): 44 ± 7.3%; maximum target inhibition (mouse ENTPD2 inhibition) (mouse ENTPD2; NIH3T3-mouse ENTPD2 engineered cell line): 44%; tumor growth relative to No Treatment control, combination (B16F10 tumor; mAb13 15 mg/kg in combination with anti-PD-1 Ab 10 mg/kg, days 1, 5, 8): significant reduction in tumor growth; anti-tumor efficacy, treatment alone (B16F10 tumor; mAb13 15 mg/kg or anti-PD-1 Ab 10 mg/kg i.p. alone, days 1, 5, 8): No significant anti-tumor efficacy; activated CD4 T-helper cells (CD45+ CD8− CD4+ FOXP3− CD69+ CD25+) in tumor, increase vs No Treatment (B16F10 tumor; [1]): 7.0 fold; activated CD8 T cells (CD45+ CD4− CD8+ CD69+ CD25+) in tumor, change vs No Treatment (B16F10 tumor; [1]): 5.8 fold
